Consider two substances from PMC4954698.

Test [1] has as its target Glutamate decarboxylase (GAD) from Escherichia coli K12, produced in media supplemented with pyridoxine hydrochloride (GAD-V) (E. coli str. K12 substr. MG1655) (UniProt P69910). Description: SEC; Superdex 200 10/300GL, 20 mM citric acid-Na2HPO4 buffer pH 6.5 with 0.15 mM PLP, 0.4 mL/min, calibrated with molecular weight standards; native molecular weight about 324 kDa. A general note: In gel filtration, larger molecules generally elute earlier.

The target in test [2] is Glutamate decarboxylase (GAD) from Escherichia coli K12, produced without pyridoxine hydrochloride supplementation (GAD-C) (E. coli str. K12 substr. MG1655) (UniProt P69910). The test is described as above.

As a reminder, the stoichiometry N is a count of units in the complex or per binding partner. “Glutamate decarboxylase (GAD) from Escherichia coli K12, produced in media supplemented with pyridoxine hydrochloride (GAD-V) (from UniProt P69910 1-466) (enzyme)” yielded a stoichiometry N in test [1] of 6.
The substance “Glutamate decarboxylase (GAD) from Escherichia coli K12, produced without pyridoxine hydrochloride supplementation (GAD-C) (from UniProt P69910 1-466) (enzyme)” yielded a stoichiometry N in test [2] of 6.
